# Experimental data reported in US20110236900, “NOVEL MUTS PROTEIN AND METHOD FOR DETERMING MUTATION USING THE SAME” (RIKEN, published 2011).
# T1: Aac MutS (Alicyclobacillus acidocaldarius subsp. acidocaldarius JCM5260)
# T1 sequence: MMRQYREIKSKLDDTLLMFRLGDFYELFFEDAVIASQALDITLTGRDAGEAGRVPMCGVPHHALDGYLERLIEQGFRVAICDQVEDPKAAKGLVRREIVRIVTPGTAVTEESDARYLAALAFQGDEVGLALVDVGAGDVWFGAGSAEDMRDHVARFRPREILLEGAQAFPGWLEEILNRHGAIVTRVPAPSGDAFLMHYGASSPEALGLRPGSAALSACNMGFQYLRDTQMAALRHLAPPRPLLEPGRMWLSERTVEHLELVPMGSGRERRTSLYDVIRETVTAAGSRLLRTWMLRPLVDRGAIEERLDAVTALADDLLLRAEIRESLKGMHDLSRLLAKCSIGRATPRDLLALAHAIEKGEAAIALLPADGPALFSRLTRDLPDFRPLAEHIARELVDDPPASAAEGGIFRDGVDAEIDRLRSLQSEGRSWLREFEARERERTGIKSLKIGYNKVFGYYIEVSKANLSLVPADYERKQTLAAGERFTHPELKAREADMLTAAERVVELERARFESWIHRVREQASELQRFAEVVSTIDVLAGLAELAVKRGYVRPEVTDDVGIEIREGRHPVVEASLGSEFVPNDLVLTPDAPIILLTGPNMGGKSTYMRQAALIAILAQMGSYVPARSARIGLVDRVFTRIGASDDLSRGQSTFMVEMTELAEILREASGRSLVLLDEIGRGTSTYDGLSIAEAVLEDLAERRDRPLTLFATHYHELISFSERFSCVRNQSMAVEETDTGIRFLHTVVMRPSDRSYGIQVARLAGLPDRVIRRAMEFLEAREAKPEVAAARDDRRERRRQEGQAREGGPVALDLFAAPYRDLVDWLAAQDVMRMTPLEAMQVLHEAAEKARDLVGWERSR
# T2: Aac MutS (Alicyclobacillus acidocaldarius subsp. …)
# T2 chain: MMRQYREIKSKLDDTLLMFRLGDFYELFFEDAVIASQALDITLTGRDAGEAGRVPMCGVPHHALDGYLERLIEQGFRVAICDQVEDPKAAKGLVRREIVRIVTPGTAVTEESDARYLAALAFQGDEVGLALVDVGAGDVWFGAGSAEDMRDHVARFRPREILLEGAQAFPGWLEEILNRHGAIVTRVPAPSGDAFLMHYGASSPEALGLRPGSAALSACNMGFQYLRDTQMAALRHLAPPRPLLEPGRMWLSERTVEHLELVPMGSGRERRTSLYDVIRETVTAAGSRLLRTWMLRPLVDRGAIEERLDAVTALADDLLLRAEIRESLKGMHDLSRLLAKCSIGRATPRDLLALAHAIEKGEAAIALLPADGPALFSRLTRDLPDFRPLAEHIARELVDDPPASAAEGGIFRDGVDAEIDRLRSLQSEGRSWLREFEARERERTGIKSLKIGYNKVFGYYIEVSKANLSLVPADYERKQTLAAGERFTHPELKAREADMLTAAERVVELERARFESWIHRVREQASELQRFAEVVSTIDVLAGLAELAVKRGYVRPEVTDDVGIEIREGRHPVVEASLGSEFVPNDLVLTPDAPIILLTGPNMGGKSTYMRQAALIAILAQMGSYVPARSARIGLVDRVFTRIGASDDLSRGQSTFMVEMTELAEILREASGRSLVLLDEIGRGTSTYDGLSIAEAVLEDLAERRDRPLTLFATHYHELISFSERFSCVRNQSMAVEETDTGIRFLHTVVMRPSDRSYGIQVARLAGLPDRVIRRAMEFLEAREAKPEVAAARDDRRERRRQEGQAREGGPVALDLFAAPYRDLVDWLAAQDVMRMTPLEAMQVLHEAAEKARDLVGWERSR
# T3: Taq MutS (Thermus aquaticus, UniProt Q56215 Q56215:1-811)
# T3 sequence: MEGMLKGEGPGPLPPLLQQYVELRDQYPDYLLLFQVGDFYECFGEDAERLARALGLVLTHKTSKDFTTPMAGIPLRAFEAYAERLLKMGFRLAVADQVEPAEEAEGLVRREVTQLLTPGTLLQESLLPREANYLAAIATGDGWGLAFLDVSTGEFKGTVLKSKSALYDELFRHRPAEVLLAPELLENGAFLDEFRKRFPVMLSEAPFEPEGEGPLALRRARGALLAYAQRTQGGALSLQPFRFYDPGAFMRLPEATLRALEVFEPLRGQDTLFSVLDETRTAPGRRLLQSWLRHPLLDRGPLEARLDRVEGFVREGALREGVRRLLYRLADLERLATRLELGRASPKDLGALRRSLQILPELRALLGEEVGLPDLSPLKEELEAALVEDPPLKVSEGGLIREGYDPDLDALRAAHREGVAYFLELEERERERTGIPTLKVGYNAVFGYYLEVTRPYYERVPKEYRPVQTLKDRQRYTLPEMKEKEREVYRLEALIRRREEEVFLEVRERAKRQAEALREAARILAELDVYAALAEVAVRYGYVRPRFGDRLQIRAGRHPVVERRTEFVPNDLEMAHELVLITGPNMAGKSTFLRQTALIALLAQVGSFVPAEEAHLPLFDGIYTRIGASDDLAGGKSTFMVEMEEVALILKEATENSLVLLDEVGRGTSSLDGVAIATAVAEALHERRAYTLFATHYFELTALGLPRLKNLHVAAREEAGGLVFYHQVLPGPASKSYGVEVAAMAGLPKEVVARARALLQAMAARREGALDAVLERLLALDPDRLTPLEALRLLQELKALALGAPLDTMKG
# Columns and labels:
# [1] = tested on: T1, Aac MutS (Alicyclobacillus acidocaldarius subsp. acidocaldarius JCM5260); experiment: SPR; settings: 20 mM MgCl2
# Aac MutS [2] = target: T2, Aac MutS; experiment: SPR; Example 2; no nucleotide, 20 mM MgCl2, 50 mM KCl, pH 7.6; settings: tags: none stated (pET17b, E. coli BL21-CodonPlus(DE3)RIL); chain copies: 2 stated; label: 5'-biotin on T-strand; single G-T mismatch
# Description: (§1) The chip was set in BIACORE3000, then the running buffer was passed through a channel of the chip at a flow rate of 10 μL/min, and an experiment was started as follows. First, 5 μmol/L C-strand DNA, 5 μmol/L T-strand DNA, and 5 μmol/L Del-strand DNA as regands were passed through the respective three flow cells contained in the chip at a flow rate of 10 μL/min, and they were bound to each other until the Resonance Unit reached about 150 RU (Resonance Unit). Subsequently, 5 μmol/L of the G-strand DNA was injected into each of the flow cells at a flow rate of 20 μL/min for 2 minutes, and thereafter, the flow cells were washed with the running buffer for 10 minutes. Thus, double-stranded DNAs between the C-strand DNA and the G-strand DNA, between T-strand DNA and the same, and between the Del-strand DNA and the same were formed. Then, an Aac MutS solution with the predetermined concentration (0.1, 0.2, 0.5, 1, 2, or 4 μmol/L) was injected into each of the flow cells at a flow rate of 20 μL/min for 10 minutes, and thereafter, the flow cells were washed with the running buffer for 20 minutes. While injecting and washing, signal intensity was measured from the start of the injection of the Aac MutS. In Comparative Example 1, signal intensity was measured by the same treatment as that of Example 2 using Taq MutS derived from Thermus aquatieus as substitute for the Aac MutS.
# Aac MutS [3] = target: T2, Aac MutS; experiment: SPR; Example 3-1; 1 mM ADP, 20 mM MgCl2, 50 mM KCl, pH 7.6; settings: tags: none stated (pET17b, E. coli BL21-CodonPlus(DE3)RIL); chain copies: 2 stated; label: 5'-biotin on T-strand; single G-T mismatch
# Description: as §1, with “Then, an Aac MutS solution with the predetermined concentration (0.1, 0.2, 0.5, 1, 2, or 4 μmol/L) was injected into each of the flow cells at a flow rate of 20 μL/min for 10 minutes, and thereafter, the flow cells were washed with the running buffer for 20 minutes.” left out
# (§2) The signal intensity was measured in the same manner as in Example 2 except that 1 mmol/L ADP or ATP was added to the running buffer of Example 2. […] In Comparative Example 2, the signal intensity was measured using the Taq MutS in the same manner as in Example 3. […]
# Taq MutS [4] = target: T3, Taq MutS; experiment: SPR; Comp. Ex. 2-1; 1 mM ADP, 20 mM MgCl2
# Description: as §1, with “Then, an Aac MutS solution with the predetermined concentration (0.1, 0.2, 0.5, 1, 2, or 4 μmol/L) was injected into each of the flow cells at a flow rate of 20 μL/min for 10 minutes, and thereafter, the flow cells were washed with the running buffer for 20 minutes.” left out
# as §2
# Taq MutS [5] = target: T3, Taq MutS; experiment: SPR; Comp. Ex. 1; no nucleotide, 20 mM MgCl2, 50 mM KCl, pH 7.6; settings: label: 5'-biotin on T-strand; single G-T mismatch
# Description: as §1
# Taq MutS [6] = target: T3, Taq MutS; experiment: SPR; Comp. Ex. 1; no nucleotide, 20 mM MgCl2; settings: label: 5'-biotin on C-strand
# Description: as §1
molecule,measurement,setting,value
CCGCTGAATTGCACCGAGCTCGATCCTCGATGATCCTAAGCGATCCATG (double strand) [C/G fully-matched duplex],Kd,"[1]; Example 2, no nucleotide, text says binding not found",65.5 µM
same,Kd,"[1]; Example 3-1, 1 mM ADP, binding described as sufficiently suppressed",19.8 µM
T/G mismatched duplex (dsDNA) DNA 1: CCGCTGAATTGCACCGAGCTTGATCCTCGATGATCCTAAGCGATCCATG DNA 2: CATGGATCGCTTAGGATCATCGAGGATCGAGCTCGGTGCAATTCAGCGG,Kd,Aac MutS [2],1.45 µM
same,Kd,Aac MutS [3],0.33 µM
same,Kd,"Taq MutS [4]; label: 5'-biotin on T-strand, single G-T mismatch",2.26 µM
same,Kd,Taq MutS [5],0.622 µM
C/G fully-matched duplex (dsDNA) DNA 1: CCGCTGAATTGCACCGAGCTCGATCCTCGATGATCCTAAGCGATCCATG DNA 2: CATGGATCGCTTAGGATCATCGAGGATCGAGCTCGGTGCAATTCAGCGG,Kd,Taq MutS [4]; label: 5'-biotin on C-strand,6.58 µM
same,Kd,Taq MutS [6],2.27 µM
